This assay deals with T1, wild-type glycoprotein B (gB) of HSV-1(F) (Herpes simplex virus 1 (HSV-1(F)), UniProt P06436 30-903).
T1 construct: whole, on cells; also called wild-type gB
As to the kind of experiment: flow cytometry on infected 293T cells, PE-labeled anti-human IgG secondary antibody. For orientation: A flow cytometer gives signals particle by particle.

B1: NMHC-IIArod-Ig (fusion protein of the C terminal fragment of NMHC-IIA and Ig) (Fc fusion)
chain: LAQAKENEKKLKSMEAEMIQLQEELAAAERAKRQAQQERDELADEIANSSGKGALALEEKRRLEARIAQLEEELEEEQGNTELINDRLKKANLQIDQINTDLNLERSHAQKNENARQQLERQNKELKVKLQEMEGTVKSKYKASITALEAKIAQLEEQLDNETKERQAACKQVRRTEKKLKDVLLQVDDERRNAEQYKDQADKASTRLKQLKRQLEEAEEEAQRANASRRKLQRELEDATETADAMNREVSSLKNKLRRGDLPFVVPRRMARKGAGDGSDEEVDGKADGAEAKPAE
notes: also called soluble C-terminal fragment of NMHC-IIA; soluble form of NMHC-IIA
On to B1, for which the binding result was “binds”.

The record behind these values is patent publication US20130115589A1 (UNIVERSITY OF TOKYO, published 2013).
